Target: AbTFM (A. baumannii tautomerase family member) (Acinetobacter baumannii)
Assay: crystal structure; sitting-drop crystals at 296 K from 0.2 M ammonium nitrate, PEG 3350; protein in 20 mM HEPES-NaOH pH 6.8, 150 mM NaCl; space group H3, one subunit in the asymmetric unit, trimer by the crystallographic threefold axis

AbTFM (A. baumannii tautomerase family member) (natural protein)
stoichiometry N: 3
